{"source": "patent US11262348B2", "about": "“Cell-based assays for detection of antibodies or other factors that neutralize uptake of lysosomal enzymes” (BIOMARIN PHARMACEUTICAL INC., priority 2015, dated 2022)", "molecules": {"B1": {"name": "Recombinant human N-acetylgalactosamine-6-sulfatase (protein, UniProt P34059 27-522, looked up)", "N-acetylgalactosamine-6-sulfat …": "APQPPNILLLLMDDMGWGDLGVYGEPSRETPNLDRMAAEGLLFPNFYSANPLCSPSRAALLTGRLPIRNGFYTTNAHARNAYTPQEIVGGIPDSEQLLPELLKKAGYVSKIVGKWHLGHRPQFHPLKHGFDEWFGSPNCHFGPYDNKARPNIPVYRDWEMVGRYYEEFPINLKTGEANLTQIYLQEALDFIKRQARHHPFFLYWAVDATHAPVYASKPFLGTSQRGRYGDAVREIDDSIGKILELLQDLHVADNTFVFFTSDNGAALISAPEQGGSNGPFLCGKQTTFEGGMREPALAWWPGHVTAGQVSHQLGSIMDLFTTSLALAGLTPPSDRAIDGLNLLPTLLQGRLMDRPIFYYRGDTLMAATLGQHKAHFWTWTNSWENFRQGIDFCPGQNVSGVTTHNLEDHTKLPLIFHLGRDPGERFPLSFASAEYQEALSRITSVVQQHQEALVPAQPQLNVCNWAVMNWAPPGCEKLGKCLTPPESIPKKCLWSH", "notes": "enzyme replacement therapy (elosulfase alfa) for the treatment of MPS IVA"}, "B2": {"name": "Alexa488-rhGALNS (conjugate, UniProt P34059 27-522, looked up)", "N-acetylgalactosamine-6-sulfat …": "B1 N-acetylgalactosamine-6-sulfat …", "modifications": "Alexa488 label"}}, "key": {"[1]": {"assay": "NAb and TAb titers and positivity in individuals treated with elosulfase alfa (clinical study)", "format": "in vivo, human", "experimental": "Samples from a 24 week study of rhGALNS (elosulfase alfa) treatment were assessed for NAb at baseline and weeks 2, 4, 8, 12, 16, 20 and 24. rhGALNS was infused at 2.0 mg/kg body weight in two dosing cohorts, weekly and every other week (QOW). Positive samples (FIG. 2A) show comparatively low NAb titers [wk 24 mean 52 (range 0 to 1,098) in the weekly group and 130 (range 0 to 1,659) in the QOW group] relative to anti-rhGALNS total antibody (TAb) titers [wk 24 mean 167,737 (range 0 to 1.77×10^6) in the weekly group and 190,901 (range 810 to 1.77×10^6) in the QOW group] (FIG. 2B).\nNAb titers and clinical outcomes To compare the functional NAb assay with the previously reported ELISA-based CI-M6PR binding assay for detecting NAb in elosulfase alfa-treated individuals with Morquio A syndrome [Schweighardt et al., supra], serum samples from the clinical trial were reanalyzed with the cell-based assay. Sufficient serum-sample volumes were available for the majority (842/847 [99%]) of serum sample collection time points to obtain confirmed positive/negative results. The overall concordance was high (89%) between NAb positivity in the receptor binding assay and the cell-based assay. Furthermore, the concordance was consistent over the 24-week treatment period (FIG. 9A).\nTAb titers detected using the CI-M6PR binding assay reported previously [Schweighardt et al., supra] were compared to the time course for NAb titer development detected with the functional NAb assay (FIG. 9B). Titers of both TAbs and NAbs increased rapidly during the first 8 weeks of treatment then plateaued from week 8 to week 24 in both the QOW and QW treatment groups (FIG. 9B). Although the frequency of drug administration had minimal effect on TAb and NAb titers at week 24, the QW treatment group appeared to have higher titers of both TAbs and NAbs in the initial 4 weeks of treatment. Subjects in both the QOW and QW treatment groups developed different NAb titer courses over 24 weeks."}, "[2]": {"conditions": "cited from earlier work; for proportion of patients with NAb positivity: long-term extension study"}, "[3]": {"conditions": "after 22 weeks, cited from earlier work; for half-life (t1/2): plasma"}, "[4]": {"assay": "Elosulfase alfa pharmacokinetics in individuals with Morquio A syndrome", "format": "in vivo, human", "conditions": "QOW and QW cohorts, week 22 PK vs week 24 NAb titer", "text": "Effect of NAb Titer on Elosulfase Alfa Pharmacokinetics: In order to further explore the association between NAbs and pharmacokinetics, NAb titers from the functional NAb assay were compared to total clearance (CL) of drug after intravenous administration and elimination half-life (t1/2). Increased NAb titers were associated with prolonged t1/2 in both the QOW and QW cohorts (FIG. 12A).\nAntibodies that neutralize elosulfase alfa uptake through CI-M6PR may not exist at concentrations sufficient to prevent effective amounts of elosulfase alfa from reaching target tissues. Although NAbs that block uptake of drug are measureable in our cell-based NAb assay, this amount of NAbs may be insignificant relative to elosulfase alfa dose. This cell-based assay was designed to detect the lowest possible NAb concentrations, ideally prior to observed clinical effects. […] 53 (2014) 1137-1147]. […] 53 (2014) 1137-1147]. Although further investigation is needed, one aspect to the lack of neutralizing antibody effect on efficacy may be that rapid clearance of drug from plasma diminishes the rate of neutralizing antibody-elosulfase alfa complex formation. […] Scler. 15 (2009) 977-983]."}, "[5]": {"assay": "Efficacy in clinical study: 6MWT distance and urine keratan sulfate (uKS)", "format": "in vivo, human", "conditions": "24-week treatment period, QOW and QW", "experimental": "The primary efficacy measure in the clinical study was the distance walked in a 6MWT, which provides a measure of endurance. Keratan sulfate, an rhGALNS substrate, was also measured in individuals' urine (uKS) to track the pharmacodynamic effect of treatment with elosulfase alfa. NAb titers detected with the functional NAb assay were plotted against the change from baseline to week 24 in 6MWT distance, and the percentage change in uKS from baseline. No association was observed between NAb titer and 6MWT (FIG. 11A) or NAb titer and uKS (FIG. 11B) in individuals dosed weekly or every 2 weeks."}, "Jurkat cells [6]": {"test_system": "Jurkat cells", "assay": "Cell-based flow cytometry assay of Alexa488-rhGALNS uptake (screening assay, % SI)", "design": "species or system human", "conditions": "for NHPS (% SI): no AbPC; for MFI: Alexa488-rhGALNS 0.4 μg/mL, 20% pooled human serum", "experimental": "Cell uptake of rhGALNS is measured using flow cytometry to determine the amount of fluorophore-conjugated rhGALNS taken up by Jurkat cells. Jurkat cells are a non-adherent human T cell line that express CI-MPR, which binds and targets rhGALNS to the lysosome. rhGALNS neutralizing antibodies (NAb) are detected in samples by a decrease in fluorophore-conjugated rhGALNS uptake (calculated as % inhibition) that exceeds the screening cut point (SCP).\nFor a 1:1 dilution, 60 μL per well of controls were added in duplicate or in quadruplicate for 2 sets into the appropriate wells. Similarly, for a 1:1 dilution of sample, 60 μL per well of patient screening samples were added into the appropriate wells. For a 1:1 dilution for the confirmation assay, 60 μL per well of patient confirmation samples were added in duplicate into the corresponding wells. The plate was covered, wrapped in foil and allowed to incubate overnight for 14 to 20 hours at 2-8° C.\nAssay: Prior to the sample incubation step, the cell plates were removed from the CO2 incubator and observed to ensure the cells were healthy and viable. […] After the incubation was completed, the cells were washed in PBS by centrifuging the plate for 6 min at 310×g in a tabletop centrifuge at 14 to 18° C., repeated two to five times as appropriate. After the last wash, the plate was removed from the centrifuge, the cell pellet resuspended in 100 μL viability stain (red fluorescent reactive dye 1:1000 dilution) and tested for viability. Once viability testing was complete, the cells were centrifuged 6 min at 310×g in a tabletop centrifuge at 14 to 18° C.\nPercent Signal Inhibition (% SI) is calculated as [% SI=1—mean median fluorescence intensity (MFI) of sample/mean MFI of control×100]. Confirmatory assay data were analyzed as recovery ratio, defined as mean confirmatory assay MFI of sample/mean screening assay MFI of sample. The titer was calculated as the interpolated dilution factor at which the sample crossed the titer cut point determined by linear regression analysis (Microsoft Excel)."}, "Jurkat cells [7]": {"test_system": "Jurkat cells", "assay": "Confocal imaging of Alexa488-rhGALNS internalization and trafficking to lysosomes", "format": "cell-based, human", "conditions": "LysoTracker Red", "experimental": "Confocal Imaging: Internalization of Alexa488-rhGALNS and trafficking to lysosomes was confirmed by confocal microscopy by incubating cells from the functional NAb assay described in section 2.3 with 50 nM LysoTracker Red (Molecular Probes) at 37° C. for 1 h. Cells were then washed with serum-free RPMI-1640 and mounted with Prolong Gold Antifade Mountant with DAPI (Molecular Probes), sealed, and visualized using a Leica SP8 confocal microscope (Leica Microsystems). Confocal Z-stacks were acquired using a 63× Plan-Apo objective with 4× zoom and LASX software (Leica Microsystems). Z-stacks were rendered in 3-D and exported using Volocity software version 6.3 (PerkinElmer)."}}, "note": "Like-named read-outs stand apart in the source and are kept apart here. Marks after values point to notes of the source that are not given here.", "data": [{"molecule": "B1", "values": [{"measurement": "mean NAb titer", "setting": "[1]; at 12 weeks", "value": "118±271"}, {"measurement": "NAb titer, mean", "setting": "[1]; wk 24, 2.0 mg/kg QOW group", "value": 130}, {"measurement": "anti-rhGALNS total antibody (TAb) titer, mean", "setting": "[1]; wk 24, 2.0 mg/kg QOW group", "value": "190,901"}, {"measurement": "NAb titer, mean", "setting": "[1]; wk 24, 2.0 mg/kg weekly group", "value": 52}, {"measurement": "anti-rhGALNS total antibody (TAb) titer, mean", "setting": "[1]; wk 24, 2.0 mg/kg weekly group", "value": "167,737"}, {"measurement": "development of drug-specific total antibodies (TAb)", "setting": "[2]; clinical study, treated individuals", "value": "all individuals"}, {"measurement": "proportion of patients with NAb positivity", "setting": "[2]; week 36", "value": 85.9, "unit": "%"}, {"measurement": "proportion of patients with NAb positivity", "setting": "[2]; week 120", "value": 66.0, "unit": "%"}, {"measurement": "half-life (t1/2)", "setting": "[3]; 2.0 mg/kg QOW", "value": 19, "unit": "min"}, {"measurement": "plasma Cmax", "setting": "[3]; 2.0 mg/kg QOW", "value": 2600, "unit": "ng/mL"}, {"measurement": "half-life (t1/2)", "setting": "[3]; 2.0 mg/kg QW", "value": 36, "unit": "min"}, {"measurement": "plasma Cmax", "setting": "[3]; 2.0 mg/kg QW", "value": 4000, "unit": "ng/mL"}, {"measurement": "CL with increased NAb titers (trend)", "setting": "[4]", "value": "decreased"}, {"measurement": "t1/2 with increased NAb titers", "setting": "[4]", "value": "prolonged"}, {"measurement": "impact of NAb titers on efficacy (6MWT, uKS)", "setting": "[5]", "value": "no detrimental impact"}, {"measurement": "concentration of unlabeled rhGALNS that reduced Alexa488-rhGALNS uptake", "setting": "Jurkat cells [6]; NPS without AbPC", "value": "≥ 0.22", "unit": "µg/mL"}, {"measurement": "rhGALNS concentration the assay can tolerate before interference with Alexa488-rhGALNS uptake", "setting": "Jurkat cells [6]; drug tolerance", "value": "up to 0.22 μg/mL"}, {"measurement": "highest neat concentration of rhGALNS at which the low and high PC-spiked samples screened positive", "setting": "Jurkat cells [6]; highest concentration tested", "value": 2.00, "unit": "µg/mL"}, {"measurement": "NHPS (% SI)", "setting": "Jurkat cells [6]; unlabeled elosulfase alfa 0.0027 μg/mL", "value": "−10.84", "unit": "% SI"}, {"measurement": "NHPS (% SI)", "setting": "Jurkat cells [6]; unlabeled elosulfase alfa 0.008 μg/mL", "value": 3.79, "unit": "% SI"}, {"measurement": "NHPS (% SI)", "setting": "Jurkat cells [6]; unlabeled elosulfase alfa 0.025 μg/mL", "value": "−7.21", "unit": "% SI"}, {"measurement": "NHPS (% SI)", "setting": "Jurkat cells [6]; unlabeled elosulfase alfa 0.074 μg/mL", "value": "−5.58", "unit": "% SI"}, {"measurement": "NHPS (% SI)", "setting": "Jurkat cells [6]; unlabeled elosulfase alfa 0.22 μg/mL", "value": 8.00, "unit": "% SI"}, {"measurement": "NHPS (% SI)", "setting": "Jurkat cells [6]; unlabeled elosulfase alfa 0.67 μg/mL", "value": "26.94* % SI"}, {"measurement": "NHPS (% SI)", "setting": "Jurkat cells [6]; unlabeled elosulfase alfa 2.00 μg/mL", "value": "55.42* % SI"}]}, {"molecule": "B2", "values": [{"measurement": "localization by confocal imaging", "setting": "Jurkat cells [7]", "value": "co-localized with lysosomes"}, {"measurement": "MFI", "setting": "Jurkat cells [6]; cells incubated at 4° C.", "value": "92.9±1.50"}, {"measurement": "MFI", "setting": "Jurkat cells [6]; cells incubated at 37° C.", "value": "4425±98.6"}, {"measurement": "Kuptake", "setting": "Jurkat cells [6]; Hanes-Woolf plot linear regression, dose-response 0 to 363.6 nM", "value": 46.3, "unit": "nM"}, {"measurement": "Kuptake", "setting": "Jurkat cells [6]; Jurkat T cells, 4 hours incubation at 37° C.", "value": "approximately 5 μg/mL"}]}]}
